The target of assay [1] is T1, human ASIC1a F302A (human) (UniProt P78348).
T1 sequence: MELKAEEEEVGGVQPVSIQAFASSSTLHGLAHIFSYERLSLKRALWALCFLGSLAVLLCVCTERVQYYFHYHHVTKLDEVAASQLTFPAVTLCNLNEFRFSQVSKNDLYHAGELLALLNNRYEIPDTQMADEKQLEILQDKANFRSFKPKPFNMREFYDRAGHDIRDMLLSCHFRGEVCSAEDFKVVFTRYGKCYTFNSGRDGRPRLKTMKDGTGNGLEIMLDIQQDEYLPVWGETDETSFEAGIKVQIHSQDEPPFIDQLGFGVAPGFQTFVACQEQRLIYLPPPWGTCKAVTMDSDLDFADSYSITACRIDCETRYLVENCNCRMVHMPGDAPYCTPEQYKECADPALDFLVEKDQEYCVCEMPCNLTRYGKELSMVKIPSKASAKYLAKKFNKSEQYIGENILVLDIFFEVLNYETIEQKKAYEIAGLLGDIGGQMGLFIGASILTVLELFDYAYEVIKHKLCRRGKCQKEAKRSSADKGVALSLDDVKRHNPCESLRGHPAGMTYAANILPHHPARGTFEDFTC

Assay [2] deals with T2, human acid-sensing ion channel 1a, wild type (human) (UniProt P78348).
T2 sequence: T1 sequence with A302F

Assay [3] has as its target T3, human ASIC1a N416C (human) (UniProt P78348).
T3 sequence: T1 sequence with A302F, N416C

The target of assay [4] is T2, human acid-sensing ion channel 1a, wild type (human). The source holds these as a separate data set.

Substitutions are numbered along the chain they refer to. Ends that are not written are not given here.

Turning to FRRF-NH2 [FRRFa (Phe-Arg-Arg-Phe-amide)], the EC50 of the FRRFa-mediated sustained current induction, two-electrode voltage-clamp in assay [1] stood at 11 µM. In assay [2], this molecule registered an EC50 of the induction of a sustained current (I (sust)/I (peak) at pH5) by FRRFa, two-electrode voltage-clamp, Xenopus oocytes of 37 μM; an association rate constant kon from the time course of appearance of the sustained current fraction with 50 μM FRRFa pre-applied at pH7.4, two-electrode voltage-clamp of 162 s^−1 M^−1; a rate of disappearance of the sustained current after a 50-s incubation with 50 μM FRRFa (rate of unbinding), two-electrode voltage-clamp of 0.025 s⁻¹. In assay [3], the EC50 of FRRFa for the I (sust)/I (peak) ratio increase at pH5, two-electrode voltage-clamp was 6 μM and the koff from the time course of disappearance of the FRRFa-induced sustained current after washout of 50 μM FRRFa is 0.027 s⁻¹. The molecule further yielded a koff from the time course of disappearance of the FRRFa-induced sustained current, WT in the direct comparison with N416C in assay [4] of 0.029.

The record behind these values is PMC6385203, “Mutations in the palm domain disrupt modulation of acid-sensing ion channel 1a currents by neuropeptides” (Scientific Reports, 2019).
